# From publication doi:10.1101/2022.10.13.511879 (bioRxiv, 2022)
# Columns and labels:
# POPDC2 p.W188X-VN155 = target: T1, POPDC2 p.W188X-VN155 (human, UniProt Q9HBU9 1-187); assay: split reporter
# T1 sequence (looked up): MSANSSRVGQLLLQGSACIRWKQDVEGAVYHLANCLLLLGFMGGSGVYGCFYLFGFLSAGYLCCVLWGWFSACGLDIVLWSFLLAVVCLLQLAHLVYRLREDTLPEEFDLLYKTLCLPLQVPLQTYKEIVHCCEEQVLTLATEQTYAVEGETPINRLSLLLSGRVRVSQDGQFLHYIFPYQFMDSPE
# FRET or BRET = target: the molecule itself; assay: FRET or BRET
# [1] = target: the molecule itself; assay: SDS-PAGE and Western blot of oligomer bands that withstand SDS
# POPDC2-VN155 = target: T2, POPDC2-VN155 (human, UniProt Q9HBU9 1-364); assay: split reporter
# T2 sequence (looked up): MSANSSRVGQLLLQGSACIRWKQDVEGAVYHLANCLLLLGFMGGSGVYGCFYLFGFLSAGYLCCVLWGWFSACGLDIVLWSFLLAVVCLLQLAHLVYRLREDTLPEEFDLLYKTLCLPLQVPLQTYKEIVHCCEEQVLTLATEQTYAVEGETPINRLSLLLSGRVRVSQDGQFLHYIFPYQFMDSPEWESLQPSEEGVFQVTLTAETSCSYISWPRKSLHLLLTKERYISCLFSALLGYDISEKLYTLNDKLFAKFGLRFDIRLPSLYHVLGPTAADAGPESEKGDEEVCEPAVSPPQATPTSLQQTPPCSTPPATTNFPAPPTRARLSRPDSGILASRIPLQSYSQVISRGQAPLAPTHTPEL
binder,measurement,setting,value
"POPDC1-VC155 (natural protein, human, UniProt Q8NE79 1-360, looked up) MNYTESSPLRESTAIGFTPELESIIPVPSNKTTCENWREIHHLVFHVANICFAVGLVIPTTLHLHMIFLRGMLTLGCTLYIVWATLYRCALDIMIWNSVFLGVNILHLSYLLYKKRPVKIEKELSGMYRRLFEPLRVPPDLFRRLTGQFCMIQTLKKGQTYAAEDKTSVDDRLSILLKGKMKVSYRGHFLHNIYPCAFIDSPEFRSTQMHKGEKFQVTIIADDNCRFLCWSRERLTYFLESEPFLYEIFRYLIGKDITNKLYSLNDPTLNDKKAKKLEHQLSLCTQISMLEMRNSIASSSDSDDGLHQFLRGTSSMSSLHVSSPHQRASAKMKPIEEGAEDDDDVFEPASPNTLKVHQLP",BiFC signal relative to the wild-type pair,POPDC2 p.W188X-VN155,0.59
"POPDC1 with C-terminal NanoLuc or HaloTag (NanoBRET constructs) (natural protein, human, UniProt Q8NE79 1-360, looked up) MNYTESSPLRESTAIGFTPELESIIPVPSNKTTCENWREIHHLVFHVANICFAVGLVIPTTLHLHMIFLRGMLTLGCTLYIVWATLYRCALDIMIWNSVFLGVNILHLSYLLYKKRPVKIEKELSGMYRRLFEPLRVPPDLFRRLTGQFCMIQTLKKGQTYAAEDKTSVDDRLSILLKGKMKVSYRGHFLHNIYPCAFIDSPEFRSTQMHKGEKFQVTIIADDNCRFLCWSRERLTYFLESEPFLYEIFRYLIGKDITNKLYSLNDPTLNDKKAKKLEHQLSLCTQISMLEMRNSIASSSDSDDGLHQFLRGTSSMSSLHVSSPHQRASAKMKPIEEGAEDDDDVFEPASPNTLKVHQLP",stoichiometry N,FRET or BRET,2
"POPDC1-CFP (natural protein, human, UniProt Q8NE79 1-360, looked up) MNYTESSPLRESTAIGFTPELESIIPVPSNKTTCENWREIHHLVFHVANICFAVGLVIPTTLHLHMIFLRGMLTLGCTLYIVWATLYRCALDIMIWNSVFLGVNILHLSYLLYKKRPVKIEKELSGMYRRLFEPLRVPPDLFRRLTGQFCMIQTLKKGQTYAAEDKTSVDDRLSILLKGKMKVSYRGHFLHNIYPCAFIDSPEFRSTQMHKGEKFQVTIIADDNCRFLCWSRERLTYFLESEPFLYEIFRYLIGKDITNKLYSLNDPTLNDKKAKKLEHQLSLCTQISMLEMRNSIASSSDSDDGLHQFLRGTSSMSSLHVSSPHQRASAKMKPIEEGAEDDDDVFEPASPNTLKVHQLP",stoichiometry N,[1],2
"POPDC1 p.S201F-VC155 (natural protein, human, UniProt Q8NE79 1-360, looked up) MNYTESSPLRESTAIGFTPELESIIPVPSNKTTCENWREIHHLVFHVANICFAVGLVIPTTLHLHMIFLRGMLTLGCTLYIVWATLYRCALDIMIWNSVFLGVNILHLSYLLYKKRPVKIEKELSGMYRRLFEPLRVPPDLFRRLTGQFCMIQTLKKGQTYAAEDKTSVDDRLSILLKGKMKVSYRGHFLHNIYPCAFIDFPEFRSTQMHKGEKFQVTIIADDNCRFLCWSRERLTYFLESEPFLYEIFRYLIGKDITNKLYSLNDPTLNDKKAKKLEHQLSLCTQISMLEMRNSIASSSDSDDGLHQFLRGTSSMSSLHVSSPHQRASAKMKPIEEGAEDDDDVFEPASPNTLKVHQLP",BiFC signal relative to the wild-type pair,POPDC2-VN155,0.43
"POPDC1 p.Q153X-VC155 (domain or fragment, human, UniProt Q8NE79 1-152, looked up) MNYTESSPLRESTAIGFTPELESIIPVPSNKTTCENWREIHHLVFHVANICFAVGLVIPTTLHLHMIFLRGMLTLGCTLYIVWATLYRCALDIMIWNSVFLGVNILHLSYLLYKKRPVKIEKELSGMYRRLFEPLRVPPDLFRRLTGQFCMI",BiFC signal relative to the wild-type pair,POPDC2-VN155,0.248
